Test results as given in US20180201655A1 (University of California, published 2018).
Positions count from the first letter of the chain named.

B1: R10-10 (other)
chain: MKTCEQRVNIATLLTENKKKIVDKASQDLWRRHPDLIAPGGIAFSQRDRALCLRDYGWYLHLITFCLLAGDKGPIESIGLIGIREMYNSLGVPVPAMMESIRCLKEASLSLLDEEDANETAPYFDYIIKAMS
modifications: biliverdin (BV) covalently attached
notes: Evolved APCα fluorescent protein of round 10; runs as a homodimer on native PAGE; also called R10-10+BV; not shown: polyhistidine tag on the C terminus
B2: R4-1 (other)
chain: MKTGEQRVKIATLLSENEKKIVDKASQDLWRRRPDFIAPGGIAFSQRERALCLRDYRWYLHLITFCLLAGDKDPIESIGLIGIREMYNSLGVPVPGMMESIRCLKEASLSLLDEEDAKETAPYFDYIIKAMS
modifications: biliverdin (BV) covalently attached
notes: Evolved APCα fluorescent protein of round 4; runs as a tetramer on native PAGE; also called R4-1+BV; not shown: polyhistidine tag on the C terminus
B3: small ultra-red fluorescent protein (smURFP) + BV (other)
chain: B1 chain with C4S, Y59F, G82S
modifications: biliverdin (BV) covalently attached at C52; predominant species has one BV per homodimer
notes: purified from E. coli co-expressing HO-1; runs as a homodimer on native PAGE; not shown: polyhistidine tag on the C terminus
B4: smURFP + BVMe2 (other)
chain: B1 chain with C4S, Y59F, G82S
modifications: biliverdin dimethyl ester (BVMe2) attached, a single BVMe2 per homodimer
notes: smURFP purified without chromophore, BVMe2 added in vitro; detected by mass spectrometry as the homodimer + BVMe2; also called smURFP+1BVMe2; not shown: polyhistidine tag on the C terminus

What was measured:
[1] = biological target: the molecule itself; assay: native PAGE, self-association (homodimer)
From the text: (§1) FIG. 9A-FIG. 9C: Quaternary structure characterization of smURFP and TDsmURFP. (A) Native PAGE gel of APCαFPs. Monomeric IFP1.4 (36.5 kD) was ran as a reference. R4-1 runs as a tetramer, while R10-10 and smURFP run as a homodimer (32 kD). (B) Native PAGE gel of TDsmURFP. Monomeric IFP1.4 (36.5 kD) and tandem dimer Tomato (tdTomato, 54.2 kD) were ran as references. TDsmURFP (32.9 kD) runs slightly higher than smURFP due to 23 amino acid linker. (C) SDS denaturing PAGE gel of smURFP and TDsmURFP. BV was imaged by addition of zinc. All FPs show correct MW and covalently attached BV. […] (A-C) Each FP was run on two lanes. EX is excitation maximum and EM is emission maximum.
(§2) smURFP ran as a 32-kD homodimer on a native gel. R10-10 ran as a32-kD homodimer, while R4-1 was atetramer (FIG. 9a). Tandem dimer smURFP (TDsmURFP) was created by adding a 23-amino-acid linker between subunits and had ˜70% fluorescence of smURFP in bacteria (FIG. 2c). TDsmURFP (33 kD) ran near smURFP. tdTomato (54 kD) and IFP1.4 (37 kD) confirmed the dimeric nature of smURFP (FIG. 9a,b). To confirm covalent BV attachment, the FPs were run on a denaturing gel, and BV was detected with zinc²⁵. […] C52 is evolutionarily conserved among all APCαs and covalently attaches PCB (FIGS. 6 and 10a). The C52S mutation eliminated smURFP fluorescence (FIG. 10b,c), and C52 remains the BV attachment site. […]

[2] = biological target: the molecule itself; assay: native PAGE, self-association (tetramer)
From the text: as §1, §2

[3] = biological target: the molecule itself; assay: stoichiometry column of the table of biophysical properties (self-association)

Protein | binding result [3] | also measured
B1 |  | binding result [1]: binds
B2 |  | binding result [2]: binds
B3 | binds | 
B4 | binds | 
